Experimental data as given in article PMC11630628 (Molecular Plant, 2024).
Ends that are not written are not given here. * marks the point of attachment. 5FAM = O=C1OC2(c3ccc(O)cc3Oc3cc(O)ccc32)c2ccc(C(=O)*)cc21

Experiments:
[1] = test system: leaf senescence in Arabidopsis; settings: ref Gully et al., 2015; cited from earlier work
From the text: Senescence, a crucial biological event in plant development, involves the coordinated breakdown of cellular components to recycle nutrients, aiding adaptation to changing environments. It optimizes nutrient storage and reuse, particularly in leaves, the primary photosynthetic organs. Initiation of leaf senescence prompts various physiological changes, including chlorophyll (Chl) reduction and macromolecule degradation, enabling nutrient recycling that supports the growth of seeds and fruits ([Yang et al., 2014]; [Kim et al., 2018]; [Woo et al., 2019]; [Guo et al., 2021]). Efficient senescence ...

[2] = test system: ANJEA-FERONIA (ANJ–FER) receptor complex; set-up: method as in Liu et al., 2021; settings: ref Liu et al., 2021; cited from earlier work
[3] = test system: FERONIA (FER) / EFR/FLS2-BAK1 complex; set-up: method as in Stegmann et al., 2017; settings: ref Stegmann et al., 2017; cited from earlier work
[4] = target: T1, MIK2 ectodomain (MIK2^LRR, residues 45-707) fused with a 6x His-MBP tag (Arabidopsis thaliana), Q8VZG8; assay: MST; Figure 5F, competition: 0.5 μM FAM-SCOOP10 and 15 μM MIK2^LRR mixed 10 min at room temperature in the dark, then a range of concentrations of SCOOP12, 10 min; 20% LED power, 20% MST power; the reverse set-up (SCOOP10 on MIK2-SCOOP12) is not described
T1 chain: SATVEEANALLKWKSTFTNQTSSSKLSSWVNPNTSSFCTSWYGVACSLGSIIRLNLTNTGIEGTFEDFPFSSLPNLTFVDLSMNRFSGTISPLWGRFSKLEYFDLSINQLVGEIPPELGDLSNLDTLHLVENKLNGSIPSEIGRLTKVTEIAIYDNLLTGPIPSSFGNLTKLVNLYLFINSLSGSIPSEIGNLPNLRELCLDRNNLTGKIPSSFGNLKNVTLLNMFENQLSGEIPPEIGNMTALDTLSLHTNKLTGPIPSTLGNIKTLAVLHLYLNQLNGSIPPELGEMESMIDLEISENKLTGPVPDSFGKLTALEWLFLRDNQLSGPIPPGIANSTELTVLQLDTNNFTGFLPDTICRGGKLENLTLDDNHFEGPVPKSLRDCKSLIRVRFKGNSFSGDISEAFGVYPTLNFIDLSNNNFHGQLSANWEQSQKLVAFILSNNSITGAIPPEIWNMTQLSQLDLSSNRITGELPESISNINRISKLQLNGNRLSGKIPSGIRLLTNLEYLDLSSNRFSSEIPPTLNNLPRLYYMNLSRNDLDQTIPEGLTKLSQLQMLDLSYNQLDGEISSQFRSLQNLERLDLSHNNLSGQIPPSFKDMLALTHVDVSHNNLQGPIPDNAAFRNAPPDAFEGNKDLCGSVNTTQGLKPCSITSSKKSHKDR

[5] = target: T2, MIK2 ectodomain (MIK2^LRR, residues 45-707) fused with a 6x His-MBP tag (Arabidopsis thaliana, UniProt Q8VZG8 45-707); assay: MST; Figure 5F, titrations in the absence of the competing peptide; conditions of these titrations not told apart from the others; settings: both partners purified
T2 construct: ectodomain residues 45-707, without the putative N-terminal signal peptide; Cloned into pET41 with a 6x His-MBP tag; no cleavage of the tag is told; also called His-MBP-tagged MIK2^LRR; ectodomain of MIK2; source: E. coli BL21, purified (Mag-Beads His-Tag Protein Purification Kit)
T2 sequence (looked up): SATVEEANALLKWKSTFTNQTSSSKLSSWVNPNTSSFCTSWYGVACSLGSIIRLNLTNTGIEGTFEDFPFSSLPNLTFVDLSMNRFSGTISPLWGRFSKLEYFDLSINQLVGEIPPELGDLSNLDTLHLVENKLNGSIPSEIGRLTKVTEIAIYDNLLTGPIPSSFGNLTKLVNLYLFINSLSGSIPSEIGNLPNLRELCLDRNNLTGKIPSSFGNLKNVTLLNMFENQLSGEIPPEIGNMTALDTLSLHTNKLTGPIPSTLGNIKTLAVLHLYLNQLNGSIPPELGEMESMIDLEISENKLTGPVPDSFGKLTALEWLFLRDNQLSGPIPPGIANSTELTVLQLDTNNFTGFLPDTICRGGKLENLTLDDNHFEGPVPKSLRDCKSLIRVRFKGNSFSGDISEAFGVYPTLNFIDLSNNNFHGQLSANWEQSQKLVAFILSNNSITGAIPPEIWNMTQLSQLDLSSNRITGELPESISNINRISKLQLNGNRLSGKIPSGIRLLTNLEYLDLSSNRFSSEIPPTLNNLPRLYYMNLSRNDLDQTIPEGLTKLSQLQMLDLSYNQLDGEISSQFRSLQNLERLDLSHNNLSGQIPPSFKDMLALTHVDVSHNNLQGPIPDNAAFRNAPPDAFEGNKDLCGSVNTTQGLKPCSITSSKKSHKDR

[6] = target: T2, MIK2 ectodomain (MIK2^LRR, residues …); assay: MST; Monolith NT.115; 0.05 μM 5-FAM-labelled peptide, MIK2^LRR diluted from 20 μM in ddH2O, 10 min at room temperature; 20% LED power, 40% MST power; settings: both partners purified
[7] = target: T3, MIK2 ectodomain (MIK2^LRR, residues 45-707) fused with a 6x His-MBP tag (Arabidopsis thaliana, UniProt Q8VZG8 45-707); assay: MST; in presence of competitor SCOOP12
T3 chain: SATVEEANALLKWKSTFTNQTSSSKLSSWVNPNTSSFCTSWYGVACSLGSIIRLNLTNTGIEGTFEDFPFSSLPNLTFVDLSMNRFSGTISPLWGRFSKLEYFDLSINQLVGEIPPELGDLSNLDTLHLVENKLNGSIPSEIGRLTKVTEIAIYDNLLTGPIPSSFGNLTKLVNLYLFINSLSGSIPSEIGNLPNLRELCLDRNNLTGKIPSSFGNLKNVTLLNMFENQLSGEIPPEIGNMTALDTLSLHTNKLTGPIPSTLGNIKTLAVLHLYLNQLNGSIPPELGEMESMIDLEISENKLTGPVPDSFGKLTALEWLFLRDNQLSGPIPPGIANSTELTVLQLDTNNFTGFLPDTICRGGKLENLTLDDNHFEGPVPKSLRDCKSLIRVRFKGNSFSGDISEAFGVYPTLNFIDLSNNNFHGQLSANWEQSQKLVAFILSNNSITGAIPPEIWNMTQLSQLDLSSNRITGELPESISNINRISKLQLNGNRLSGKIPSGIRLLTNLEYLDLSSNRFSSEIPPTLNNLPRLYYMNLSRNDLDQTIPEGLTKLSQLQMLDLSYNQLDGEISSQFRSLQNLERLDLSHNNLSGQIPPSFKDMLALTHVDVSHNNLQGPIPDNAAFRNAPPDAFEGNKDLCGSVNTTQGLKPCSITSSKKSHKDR

[8] = target: T3, MIK2 ectodomain (MIK2^LRR, residues …); assay: MST; in presence of competitor SCOOP10

## plant elicitor peptide PEP1 (ATKVKAKQRGKEKVSSGRPGQHN; Elicitor peptide 1; UniProt Q9LV87 70-92, looked up) [plant elicitor peptide, one of the first plant phytocytokines]
[1]
  leaf senescence modulation: function as a leaf senescence modulator in Arabidopsis

## RALF23: RAPID ALKALINIZATION FACTOR (RALF) peptide (ATRRYISYGALRRNTIPCSRRGASYYNCRRGAQANPYSRGCSAITRCRRS; Protein RALF-like 23; UniProt Q9LUS7 89-138, looked up)
[2]
  competition with POLLEN COAT PROTEIN B-class peptides: compete with the POLLEN COAT PROTEIN B-class peptides
[3]
  effect on FER-mediated receptor complex assembly: suppresses the formation of the EFR/FLS2-BAK1 complex

## PVRSSQSSQAGGR (modifications not checked) [SCOOP12 peptide (unlabeled, used as competitor), B3H7I1 44-78]
[4]
  KD printed for the inhibition of the SCOOP10-MIK2 interaction by SCOOP12: 279000 nM

## 5FAM-PNGDIFTGPSGSGHGGGR [SCOOP10 peptide labeled with FAM at the N-terminus (5'-FAM-SCOOP10)]
[5]
  Kd: 753 nM
[6]
  Kd: 13.5 ± 1.47 nM
[7]
  Kd: 279000 nM

## 5FAM-PVRSSQSSQAGGR [SCOOP12 peptide labeled with 5-FAM at the N terminus (FAM-SCOOP12)]
[8]
  Kd: 1160 nM
[6]
  Kd: 22 ± 3.02 nM
